We go through two molecules from article PMC8303780, “Mutational Analysis of Redβ Single Strand Annealing Protein: Roles of the 14 Lysine Residues in DNA Binding and Recombination In Vivo”.

The target in one data set is T1, Redβ WT (bacteriophage λ, UniProt P03698 1-261).
T1 sequence: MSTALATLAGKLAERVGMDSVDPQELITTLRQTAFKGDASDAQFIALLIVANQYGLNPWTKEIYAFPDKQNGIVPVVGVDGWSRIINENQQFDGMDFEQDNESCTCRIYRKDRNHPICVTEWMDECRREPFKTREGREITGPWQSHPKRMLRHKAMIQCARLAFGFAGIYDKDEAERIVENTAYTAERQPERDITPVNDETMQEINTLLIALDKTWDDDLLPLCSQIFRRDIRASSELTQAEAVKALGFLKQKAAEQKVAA
Put plainly: fluorescence anisotropy. The conditions noted are these: Anisotropy: 50 mM Tris-HCl pH 7.5, 1 mM DTT, 0.1 mg/mL BSA, 10 nM FAM48, 23 °C (Kd per monomer), gel assay: 10 µM Redβ, 50 µM nt of each oligo, PBS, 37 °C. (Polarisation of emitted light reports the rotation of a fluorescent probe.)

For data set [1], the target named is T2, Redβ K258A K258A (bacteriophage λ) (UniProt P03698).
T2 sequence: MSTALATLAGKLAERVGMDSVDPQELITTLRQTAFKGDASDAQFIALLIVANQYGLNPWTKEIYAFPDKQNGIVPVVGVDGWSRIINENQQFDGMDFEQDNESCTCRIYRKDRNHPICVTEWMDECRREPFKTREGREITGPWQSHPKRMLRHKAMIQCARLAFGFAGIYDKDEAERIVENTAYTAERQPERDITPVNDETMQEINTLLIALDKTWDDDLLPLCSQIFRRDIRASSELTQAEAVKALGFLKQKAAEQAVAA
Put plainly: fluorescence anisotropy. The conditions noted are these: Anisotropy: 50 mM Tris-HCl pH 7.5, 1 mM DTT, 0.1 mg/mL BSA, 10 nM FAM48, 23 °C (Kd per monomer), gel assay: 10 µM Redβ, 50 µM nt of each oligo, PBS, 37 °C.

In data set [2] the target is T3, Redβ K253A K253A (bacteriophage λ) (UniProt P03698).
T3 sequence: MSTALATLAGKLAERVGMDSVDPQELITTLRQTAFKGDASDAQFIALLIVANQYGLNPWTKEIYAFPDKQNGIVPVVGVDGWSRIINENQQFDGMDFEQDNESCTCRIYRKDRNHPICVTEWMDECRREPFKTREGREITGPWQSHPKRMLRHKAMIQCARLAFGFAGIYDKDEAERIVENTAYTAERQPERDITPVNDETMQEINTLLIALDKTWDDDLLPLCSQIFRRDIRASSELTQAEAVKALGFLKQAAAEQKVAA
As to the kind of experiment: fluorescence anisotropy. The conditions noted are these: Anisotropy: 50 mM Tris-HCl pH 7.5, 1 mM DTT, 0.1 mg/mL BSA, 10 nM FAM48, 23 °C (Kd per monomer), gel assay: 10 µM Redβ, 50 µM nt of each oligo, PBS, 37 °C.

For data set [3], the target named is T4, Redβ K11A K11A (bacteriophage λ) (UniProt P03698).
T4 sequence: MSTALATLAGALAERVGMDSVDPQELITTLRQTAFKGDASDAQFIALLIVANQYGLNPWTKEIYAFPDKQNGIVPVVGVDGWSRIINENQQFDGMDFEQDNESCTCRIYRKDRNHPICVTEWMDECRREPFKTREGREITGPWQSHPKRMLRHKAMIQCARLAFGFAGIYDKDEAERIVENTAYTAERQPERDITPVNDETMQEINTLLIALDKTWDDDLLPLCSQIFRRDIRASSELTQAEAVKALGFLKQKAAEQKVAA
Put plainly: fluorescence anisotropy. The conditions noted are these: Anisotropy: 50 mM Tris-HCl pH 7.5, 1 mM DTT, 0.1 mg/mL BSA, 10 nM FAM48, 23 °C (Kd per monomer), gel assay: 10 µM Redβ, 50 µM nt of each oligo, PBS, 37 °C.

Data set [4] deals with T5, Redβ K69A K69A (bacteriophage λ) (UniProt P03698).
T5 sequence: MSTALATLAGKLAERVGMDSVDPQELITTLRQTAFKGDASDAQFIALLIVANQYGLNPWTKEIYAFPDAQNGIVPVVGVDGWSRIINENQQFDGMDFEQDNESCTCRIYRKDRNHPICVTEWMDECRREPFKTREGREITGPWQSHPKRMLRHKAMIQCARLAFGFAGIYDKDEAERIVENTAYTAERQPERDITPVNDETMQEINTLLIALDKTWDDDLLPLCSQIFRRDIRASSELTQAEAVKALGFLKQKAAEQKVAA
As to the kind of experiment: fluorescence anisotropy. The conditions noted are these: Anisotropy: 50 mM Tris-HCl pH 7.5, 1 mM DTT, 0.1 mg/mL BSA, 10 nM FAM48, 23 °C (Kd per monomer), gel assay: 10 µM Redβ, 50 µM nt of each oligo, PBS, 37 °C.

Data set [5] concerns the target T6, Redβ K148A K148A (bacteriophage λ) (UniProt P03698).
T6 sequence: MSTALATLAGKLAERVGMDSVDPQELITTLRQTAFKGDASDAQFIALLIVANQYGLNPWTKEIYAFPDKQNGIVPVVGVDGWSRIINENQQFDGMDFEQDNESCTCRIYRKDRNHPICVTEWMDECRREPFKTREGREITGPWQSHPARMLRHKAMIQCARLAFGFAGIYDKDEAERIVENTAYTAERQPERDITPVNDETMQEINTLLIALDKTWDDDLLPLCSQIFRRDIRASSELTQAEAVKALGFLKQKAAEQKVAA
As to the kind of experiment: fluorescence anisotropy. The conditions noted are these: Anisotropy: 50 mM Tris-HCl pH 7.5, 1 mM DTT, 0.1 mg/mL BSA, 10 nM FAM48, 23 °C (Kd per monomer), gel assay: 10 µM Redβ, 50 µM nt of each oligo, PBS, 37 °C.

The target of a further data set is T7, Redβ K69A (bacteriophage λ, UniProt P03698 1-261, K69A).
T7 sequence: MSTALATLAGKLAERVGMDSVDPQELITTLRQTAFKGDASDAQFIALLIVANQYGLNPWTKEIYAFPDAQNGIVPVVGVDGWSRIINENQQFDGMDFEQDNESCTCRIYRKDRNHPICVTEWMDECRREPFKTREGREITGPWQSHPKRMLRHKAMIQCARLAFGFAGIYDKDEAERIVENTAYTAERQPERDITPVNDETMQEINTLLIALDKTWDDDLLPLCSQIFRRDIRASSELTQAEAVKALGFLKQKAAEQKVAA
Put plainly: EMSA; strands added sequentially; Anisotropy: 50 mM Tris-HCl pH 7.5, 1 mM DTT, 0.1 mg/mL BSA, 10 nM FAM48, 23 °C (Kd per monomer); gel assay: 10 µM Redβ, 50 µM nt of each oligo, PBS, 37 °C, 1% agarose at 22 °C. The conditions noted are these: protein: recombinant; tags: 6xHis removed by thrombin; residual N-terminal GSH; label: 5'-Cy3 and 5'-Cy5; complementary 50-mers; annealed by protein. (In general: A gel shift assay detects complexes by their altered migration in electrophoresis.)

A further data set addresses T8, Redβ K61A (bacteriophage λ, UniProt P03698 1-261, K61A).
T8 sequence: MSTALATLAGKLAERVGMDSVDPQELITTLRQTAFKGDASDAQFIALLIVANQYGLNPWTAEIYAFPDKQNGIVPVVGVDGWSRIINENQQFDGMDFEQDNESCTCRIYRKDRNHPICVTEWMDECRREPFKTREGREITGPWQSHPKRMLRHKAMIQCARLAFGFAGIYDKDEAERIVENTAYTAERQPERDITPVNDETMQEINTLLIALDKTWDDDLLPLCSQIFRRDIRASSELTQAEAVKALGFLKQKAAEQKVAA
The data set is described as above. The conditions noted are these: protein: recombinant; tags: 6xHis removed by thrombin; residual N-terminal GSH; label: 5'-Cy3 and 5'-Cy5; complementary 50-mers; annealed by protein.

The target of a further data set is T9, Redβ K253A (bacteriophage λ, UniProt P03698 1-261, K253A).
T9 sequence: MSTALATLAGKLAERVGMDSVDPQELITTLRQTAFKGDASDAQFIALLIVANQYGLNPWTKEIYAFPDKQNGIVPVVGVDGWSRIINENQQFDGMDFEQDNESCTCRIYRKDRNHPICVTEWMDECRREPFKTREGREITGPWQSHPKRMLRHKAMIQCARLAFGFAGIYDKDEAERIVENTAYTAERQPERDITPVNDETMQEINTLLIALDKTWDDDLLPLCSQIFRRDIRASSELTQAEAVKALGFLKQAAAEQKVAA
Described as above. The conditions noted are these: protein: recombinant; tags: 6xHis removed by thrombin; residual N-terminal GSH; label: 5'-Cy3 and 5'-Cy5; complementary 50-mers; annealed by protein.

Take FAM48 48-mer ssDNA: the dissociation constant (Kd) came to 110 nM in the data set with Redβ WT; 110 nM in data set [1]; 210 nM in [2]; 230 nM in data set [3]; 410 nM in data set [4]; 14100 nM in data set [5].

B1: annealed duplex of Cy3 and Cy5 50-mers, strands added sequentially (dsDNA)
DNA 1: GCGGATGGCTTAGAGCAGAATCGCCCTGCATAGCTCGATTTTTGCGGATG
DNA 2: CCATCCGCAAAAATCGAGCTATGCAGGGCGATTCTGCTCTAAGCCATCCG
As for B1, the binding result with Redβ K69A is listed as “binds”; with Redβ K61A, “no binding”; with Redβ K253A, “binds”.

One may read the Kd as the concentration at which binding is half-saturated. Low values mean a tighter complex, high ones a looser complex.
